System: MS2 coat protein
Experiment: apparent KD of MS2 coat protein; designed switch direction (-1 OFF switch, 1 ON switch): -1; higher = weaker reporter binding
Outline: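 Designed RNA switches sharing common flanks were transcribed on Illumina chips by stalled E. coli RNA polymerase. They were titrated with SNAP-549-labelled MS2 coat protein, from 0.7 or 1.5 nM doubling to 3 µM, in Tris-HCl pH 7.5 buffer with KCl, MgCl2, BSA, DTT, tRNA and Tween-20. Titrations ran without input, with 200 uM small-molecule ligand, or with an oligonucleotide input. The apparent KD of each design is the median over its clusters, after curve-fitting of normalised cluster fluorescence.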

[1] = Eterna round: R95, input ligand: FMN 200 uM
[2] = Eterna round: R95, input ligand: microRNA oligo, concentration not stated
[3] = Eterna round: R95, input ligand: none
[4] = input ligand: microRNA oligo, concentration not stated

| Sequence | apparent KD of MS2 coat protein [1] | apparent KD of MS2 coat protein [2] | apparent KD of MS2 coat protein [3] | apparent KD of MS2 coat protein (input ligand: FMN 200 uM) | apparent KD of MS2 coat protein [4] | apparent KD of MS2 coat protein (input ligand: none) |
| --- | --- | --- | --- | --- | --- | --- |
| GGUUGGCGAGGAUAUACAUGAGGAUCACCCAUGUGAAAGAAAAAAGUGAGGAAGAAAAGUAGAAGGCGCUGACG [salish99_ex3_r3_016] (puzzle: Exclusion 3) | 5.86 nM | 8.93 nM | 14.4 nM | – | – | – |
| GCAGCAAAUUCCACUAAAACCACAUGAGGAUCACCCAUGUCUCAGGAUAUGGUCUGGAUUACAGGCCAGAAGGGAGAAAGCUGC [Eli exng3 - 056] (Eterna round: R96, puzzle: Exclusion NG 3) | – | – | – | 12.3 nM | 9.52 nM | 14.8 nM |
| UAAUUAAUUAAUUAAUAAUACAUGAGGAUCACCCAUGUAGAUCCUACAUACAAGCUUUGUAGCUCGUCUUAUAAUUA [Stov1/3-A1] (Eterna round: R97, puzzle: Sensor, turn-off variant 1) | – | – | – | 214 nM | – | 337 nM |
| CGUCAGUGAGGAUAUGGUAACGUUUACAUGAGGAUCACCCAUGUUUCAUGGGACUAGAGACUAGAAGGUACUGACG [EX5 #42] (Eterna round: R97, puzzle: Exclusion 5) | – | – | – | 189 nM | – | 132 nM |
| CUGUUUGUAGGAUAUACAUGCGGAACCCUCCUCGUGUGAAGACAUGAGGAUCACCCAUGUAGAAGGACGAGGAG [Angeer] (Eterna round: R97, puzzle: Exclusion 2) | – | – | – | 16 nM | – | 16.3 nM |
| GUCAUCACACAUGGGAUCAACAUGAGGAUCACCCAUGUUGCCAAGUUGUUUGCACGUCUUAUCAUACGUUUUUCGAU [Mod-Jxi] (Eterna round: R97, puzzle: Sensor, turn-off variant 1) | – | – | – | 22.2 nM | – | 22.7 nM |
| ACAUGAGGAUCACCCAUGUAAACAUAAUGGCUCAUGUAGAGUCAGGAUAUGCGUGGCGAACAAUCGCAGAAGGGACAAGACUGG [Deportation 28 - Jieux - Exclusion NG 3] (Eterna round: R96, puzzle: Exclusion NG 3) | – | – | – | 29.2 nM | 19.9 nM | 27.8 nM |
| AAAACCAGAGGAUAUGCGCAUAGAUAAGACUUUGUUUCUUAACAUGAGGAUCACCCAUGUAGAAGGCUGUAAAA [Ex2 #71] (Eterna round: R97, puzzle: Exclusion 2) | – | – | – | 20.6 nM | – | 22 nM |
| GAUCCUUAAGUCAGGAUAUCAAGCAAACUCUAAAUUGAGAAGGGACAUGAGGAUCACCCAUGUCACCGAAAUAA [Zabema] (puzzle: Brourd's mod of Exclusion 4) | – | 13 nM | – | – | – | – |
| UGCCGUUGAGGAUAUACAUUGAAUUUGAUUCAUGUAAAACUACAUGAGGAUCACCCAUGUAGAAGGCAAUGGCU [Mat - Exclusion 2 - JL Mod - D63] (Eterna round: R97, puzzle: Exclusion 2) | – | – | – | 25.7 nM | – | 21.3 nM |
| AGCCCGCAAGGAGGAUAUUAACAUGAGGAUCACCCAUGUAAUCACUAGAUAGCACGGGCGGUUCGUAAGAAGGUCUAGUGGAAU [Eternabot solution 24] (Eterna round: R96, puzzle: Exclusion NG 2) | – | – | – | 35.4 nM | 22.3 nM | 33.1 nM |
| UCCUUACAUGAGGAUCACCCAUGUCAGGAUAUCUCGGGCGGCUGAGGACCAGCCGCCCAGAGAAGGGACGAGGA [Dixeinis] (puzzle: Exclusion 1) | 38.6 nM | 23.1 nM | 31.3 nM | – | – | – |
| GUUUCACAUGAGGAUCACCCAUGUGAGGAUAUGGACUUUUUAGUAAUAAUUGUUGGGUUCAGAAGGCGCGUGAU [JR_Exc1_Sub005] (Eterna round: R97, puzzle: Exclusion 1) | – | – | – | 53.1 nM | – | 44.7 nM |
| GCGGGUUUUUUGUUCGUUUACAUGAGGAUCACCCAUGUGUCUUCGCGUUCGGGUUCGGGCGGGCUUGGGCUUGGGCG [-26.2, -50.6, A 8%] (Eterna round: R97, puzzle: Sensor, turn-off variant 1) | – | – | – | 47.4 nM | – | 47.8 nM |

From the supplement of paper PMC9170038
